± gives the standard deviation of the averaged measurements.
Tested on: Saccharomyces cerevisiae
Assay: protein stability index of tFT-peptide fusion (C-terminal peptide) (PSI (0-1 scale)); higher = more stable (slower turnover)
Conditions: genetic background: wild type; temperature: 30 C
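Note: PSI is a weighted mean of sequencing reads over stability bins, variants kept only with over 10 reads, mCherry proximal and sfGFP distal, peptide attached via GGGS linker.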

| Sequence | protein stability index |
| --- | --- |
| PSPAPRPFAPLP | 0.69 ± 0.01 |
| PSPASPPPPPLP | 0.714 ± 0.2 |
| PSPLAPPPRLPV | 0.733 ± 0.049 |
| PSPLFSGSFLFF | 0.716 ± 0.029 |
| PSPLPLLPPPRP | 0.645 ± 0.037 |
| PSPLPPPLPPPV | 0.675 ± 0.043 |
| PSPLPSPLLTTL | 0.6816 ± 0.0062 |
| PSPPFPPPSPPP | 0.687 ± 0.02 |
| PSPPHLCPSPFA | 0.7518 ± 0.0015 |
| PSPPHPPIPTSP | 0.696 ± 0.015 |
| PSPPIPALSFST | 0.684 ± 0.03 |
| PSPPLPHLLLLP | 0.6929 ± 0.0035 |
| PSPPPPPRSFLH | 0.649 ± 0.066 |
| PSPPPPSRLLPP | 0.689 ± 0.025 |
| PSPPPSISIPPS | 0.73 ± 0.17 |
| PSPPPSPPSPPS | 0.708 ± 0.02 |
| PSPPQLPAAPSP | 0.779 ± 0.086 |
| PSPPRPRLPTAV | 0.67026 ± 0.00045 |
| PSPPRPSGVPVT | 0.674 ± 0.017 |
| PSPPVMSPEVAC | 0.627 ± 0.038 |
| PSPQNIPDPISP | 0.673 ± 0.04 |
| PSPRASLPRLPP | 0.597 ± 0.074 |
| PSPRPFPPPLPP | 0.6262 ± 0.0022 |
| PSPRPSPRPSPR | 0.692 ± 0.062 |
| PSPSAGPAPTPL | 0.65 ± 0.084 |
| PSPSWYGRRLLG | 0.659 ± 0.027 |

| Sequence | protein stability index |
| --- | --- |
| PSPTPPPPRSPS | 0.721 ± 0.029 |
| PSQTTRSPPPPP | 0.708 ± 0.015 |
| PSQWLPSRSRTA | 0.733 ± 0.052 |
| PSRLAPPSPSIP | 0.694 ± 0.051 |
| PSRPSPSPHLPL | 0.849 ± 0.011 |
| PSSLRLPLCSPL | 0.7039 ± 0.004 |
| PSSLSSLPPPSP | 0.669 ± 0.024 |
| PSSPALIPCRLV | 0.61 ± 0.027 |
| PSSPLSPAPPPP | 0.659 ± 0.015 |
| PSTLLTFAISIP | 0.666 ± 0.045 |
| PSTPLPHLTRPS | 0.677 ± 0.07 |
| PSVPRLPGLSLR | 0.629 ± 0.053 |
| PTAPVLRPPASP | 0.7 ± 0.011 |
| PTARIPGLYLFP | 0.695 ± 0.049 |
| PTHDPPSLHSPA | 0.604 ± 0.027 |
| PTITPPPPPPPP | 0.625 ± 0.0067 |
| PTKSQNEKTKAE | 0.679 ± 0.037 |
| PTLDATLSVASG | 0.667 ± 0.036 |
| PTLIPPPPPPGP | 0.718 ± 0.059 |
| PTLLRRVPPVPL | 0.677 ± 0.087 |
| PTLPPHSLRPPP | 0.692 ± 0.018 |
| PTPAPLPPPSPP | 0.592 ± 0.024 |
| PTPIPLGLHSLS | 0.705 ± 0.048 |
| PTPLPPPPPRPD | 0.715 ± 0.063 |
| PTPLPPRSPPPQ | 0.754 ± 0.045 |
| PTPPLPYRPRSP | 0.674 ± 0.014 |

| Sequence | protein stability index |
| --- | --- |
| PTPRGTPCPDTM | 0.66 ± 0.065 |
| PTPTTNPTHSAP | 0.695 ± 0.048 |
| PTPTTSPASRQN | 0.682 ± 0.023 |
| PTREGSDGMVGN | 0.702 ± 0.021 |
| PTRRFVFCDVDK | 0.717 ± 0.077 |
| PTRSEGYSVVYM | 0.693 ± 0.043 |
| PTSPHPPPCSPP | 0.724 ± 0.22 |
| PTTPPTILLLPL | 0.658 ± 0.031 |
| PTTVSRPPPPSP | 0.711 ± 0.009 |
| PTVLFQFSESWP | 0.668 ± 0.044 |
| PTYDSLPLLDNC | 0.673 ± 0.014 |
| PTYRGAPCLPPF | 0.728 ± 0.013 |
| PVFLEFESWCVC | 0.685 ± 0.044 |
| PVFLSCCLCLLS | 0.78 ± 0.099 |
| PVICFTSYPDRQ | 0.7 ± 0.098 |
| PVLPLPSLPSPS | 0.675 ± 0.0093 |
| PVLRLPHDETAN | 0.705 ± 0.035 |
| PVLYWHSYRLCR | 0.65 ± 0.008 |
| PVPLLHPRSLSL | 0.781 ± 0.074 |
| PVSCMAWGRLVL | 0.667 ± 0.041 |
| PVSPLFWSAKRL | 0.71061 ± 0.00011 |
| PVSPSIHPPSYP | 0.759 ± 0.023 |
| PVSSLPQTLLMF | 0.758 ± 0.22 |
| PVVGNPHRIFGV | 0.714 ± 0.028 |
| PVVKGAAGSAQR | 0.725 ± 0.074 |
| PWDPDTPIPPRP | 0.716 ± 0.012 |

| Sequence | protein stability index |
| --- | --- |
| PWRLFVTSGSPA | 0.714 ± 0.048 |
| PWVGRFVRLGVR | 0.676 ± 0.058 |
| PYIPSSVSLRQD | 0.712 ± 0.0092 |
| PYPNAQRIEIKF | 0.651 ± 0.026 |
| PYRFRDRTYEEL | 0.673 ± 0.022 |
| PYSSVPLAPPRP | 0.736 ± 0.043 |
| QAGKPAIHHAAL | 0.682 ± 0.0034 |
| QAVTSVGTTNIV | 0.689 ± 0.023 |
| QCAIRQCCLVSL | 0.574 ± 0.064 |
| QCGAWLKFTCHV | 0.636 ± 0.058 |
| QCRSLVGGCCVW | 0.693 ± 0.031 |
| QCSVFSSPPRAL | 0.723 ± 0.1 |
| QCVSGLGPVVRT | 0.7329 ± 0.0029 |
| QDERPLAPRTRW | 0.7251 ± 0.0032 |
| QDLIVENGSVSG | 0.655 ± 0.009 |
| QESPERRGVPPF | 0.674 ± 0.047 |
| QFSSPPLPLLSP | 0.629 ± 0.035 |
| QGCSRHIRTGKK | 0.5741 ± 0.0037 |
| QGGRGGRHVTDI | 0.688 ± 0.022 |
| QGIKKKKEKERR | 0.768 ± 0.14 |
| QGQAAHEHFHGR | 0.654 ± 0.042 |
| QGREREAGAEVM | 0.699 ± 0.03 |
| QGRTWGGCWGRG | 0.649 ± 0.012 |

From the supplement of paper PMC10724198
